The results in this text go back to patent US20190085084A1 (published 2019).

In test [1] the target is T1, human Sortilin expressed on HEK293T cells (human, UniProt Q99523 78-830).
T1 construct: also called hSort; HEK293T+ hSort
In words: flow cytometry titration on HEK293T cells expressing human Sortilin, 4 C, apparent KD.

Test [2] deals with T2, Human His-tagged Sortilin (R&D Systems) (human, UniProt Q99523 78-755).
T2 construct: Bought protein; also called His-captured Sortilin (SORT1); Histidine-tagged human Sortilin
Put plainly: ELISA, biotinylated Progranulin on plate-immobilized Sortilin. In general terms: In an ELISA, binding on a coated surface is turned into a signal by an enzyme label.
Method: (§1) Briefly, human or mouse Sortilin (R&D Systems) was immobilized overnight on an ELISA plate (2 μg/ml in PBS). The plates were washed in wash buffer (PBS+0.05% TWEEN20) and blocked for one hour at 37° C. with binding buffer (PBS+1% BSA). […] Plates were washed thrice in wash buffer and incubated with Streptavidin-HRP (1:200 in binding buffer, R&D Systems) for 20 min. Plates were washed thrice again and incubated with TMB substrate solution until color developed. The reaction was stopped by adding 50 ul of 2N sulfuric acid and color was quantified using a Biotek Synergy H1 plate reader. Data was analyzed and fitted in Prism.

The target of test [3] is T2, Human His-tagged Sortilin (R&D Systems). Put plainly: Biacore SPR, Sortilin captured by anti-His antibody on CM5 chip, Progranulin flowed over. On the technique in general: Surface plasmon resonance follows binding to a sensor surface in real time, without labels.
From the text: Briefly, Sortilin was captured on a CM5 sensor chip that was immobilized with an anti-His antibody (kit from GE). Progranulin was flowed over in HBS binding buffer at various concentrations. Fitting of sensorgrams for affinity estimations was done using BIAevaluation version 3.1.
For test [4], the target named is T3, mouse Sortilin (R&D Systems), recombinant (mouse, UniProt Q6PHU5 74-754, limits assumed).
T3 construct: Bought protein; also called mouse SORT1
In words: ELISA, biotinylated Progranulin on plate-immobilized Sortilin.
Method: as §1

Test [5] addresses T4, mouse Sortilin expressed on HEK293T cells (mouse, UniProt Q6PHU5 74-825).
T4 construct: also called msSort; mSort
In words: flow cytometry titration on HEK293T cells expressing mouse Sortilin, 4 C, apparent KD. A general note: In flow cytometry, cells or beads pass a laser one at a time.

B1: anti-Sortilin antibody S-22-7 (antibody, V domains shown)
VH: QVQLVQSGAEVKKPGSSVKVSCKASGGTFSSYAISWVRQAPGQGLEWMGGIIPGFGRANYAQKFQGRVTITADESTSTAYMELSSLRSEDTAVYYCARQGRKTGYYYYYGMDVWGQGTTVTVSS
VL: DIQMTQSPSTLSASVGDRVTITCRASQSISSWLAWYQQKPGKAPKLLIYKASSLESGVPSRFSGSGSGTEFTLTISSLQPDDFATYYCQQADGHITFGGGTKVEIK
For the molecule B1, in test [1], the Kd was determined as 2.05 nM.

B2: recombinant human Progranulin (Adipogen) (ligand, UniProt P28799 18-593, looked up)
chain: TRCPDGQFCPVACCLDPGGASYSCCRPLLDKWPTTLSRHLGGPCQVDAHCSAGHSCIFTVSGTSSCCPFPEAVACGDGHHCCPRGFHCSADGRSCFQRSGNNSVGAIQCPDSQFECPDFSTCCVMVDGSWGCCPMPQASCCEDRVHCCPHGAFCDLVHTRCITPTGTHPLAKKLPAQRTNRAVALSSSVMCPDARSRCPDGSTCCELPSGKYGCCPMPNATCCSDHLHCCPQDTVCDLIQSKCLSKENATTDLLTKLPAHTVGDVKCDMEVSCPDGYTCCRLQSGAWGCCPFTQAVCCEDHIHCCPAGFTCDTQKGTCEQGPHQVPWMEKAPAHLSLPDPQALKRDVPCDNVSSCPSSDTCCQLTSGEWGCCPIPEAVCCSDHQHCCPQGYTCVAEGQCQRGSEIVAGLEKMPARRASLSHPRDIGCDQHTSCPVGQTCCPSLGGSWACCQLPHAVCCEDRQHCCPAGYTCNVKARSCEKEVVSAQPATFLARSPHVGVKDVECGEGHFCHDNQTCCRDNRQGWACCPYRQGVCCADRRHCCPAGFRCAARGTKCLRREAPRWDAPLRDPALRQLL
notes: Used unlabelled, biotinylated (NHS-PEG4 or Sulfo-NHS) or labelled with DyLight 650, as the assay says; also called PGRN; hPGRN
Take B2: the Kd was 14 nM in test [2] and 14.3 nM in test [3].

B3: recombinant mouse Progranulin (Adipogen) (ligand, UniProt P28798 18-589, looked up)
chain: TQCPDGQFCPVACCLDQGGANYSCCNPLLDTWPRITSHHLDGSCQTHGHCPAGYSCLLTVSGTSSCCPFSKGVSCGDGYHCCPQGFHCSADGKSCFQMSDNPLGAVQCPGSQFECPDSATCCIMVDGSWGCCPMPQASCCEDRVHCCPHGASCDLVHTRCVSPTGTHTLLKKFPAQKTNRAVSLPFSVVCPDAKTQCPDDSTCCELPTGKYGCCPMPNAICCSDHLHCCPQDTVCDLIQSKCLSKNYTTDLLTKLPGYPVKEVKCDMEVSCPEGYTCCRLNTGAWGCCPFAKAVCCEDHIHCCPAGFQCHTEKGTCEMGILQVPWMKKVIAPLRLPDPQILKSDTPCDDFTRCPTNNTCCKLNSGDWGCCPIPEAVCCSDNQHCCPQGFTCLAQGYCQKGDTMVAGLEKIPARQTTPLQIGDIGCDQHTSCPVGQTCCPSLKGSWACCQLPHAVCCEDRQHCCPAGYTCNVKARTCEKDVDFIQPPVLLTLGPKVGNVECGEGHFCHDNQTCCKDSAGVWACCPYLKGVCCRDGRHCCPGGFHCSARGTKCLRKKIPRWDMFLRDPVPRPLL
notes: Used biotinylated; also called mPGRN; mouse PGRN
For B3, the Kd in test [4] turned out to be 40 nM.

B4: anti-Sortilin antibody S-15-6-12 (antibody, V domains shown)
VH: QVQLVQSGAEVKKPGASVKVSCKASGYTFTSRYMSWVRQAPGQGLEWMGIINPVGGSTSYAQKFQGRVTMTRDTSTSTVYMELSSLRSEDTAVYYCARDPSGIALAGPGSPYYRGMDVWGQGTTVTVSS
VL: EIVMTQSPATLSVSPGERATLSCRASQSVSSNLAWYQQKPGQAPRLLIYGASTRATGIPARFSGSGSGTEFTLTISSLQSEDFAVYYCQQARLGPWTFGGGTKVEIK
Consider B4, for which the Kd in test [5] was 6.62 nM; in test [1], 3.84 nM.

B5: anti-Sortilin antibody S-15-10-12 (antibody, V domains shown)
VH: QVQLVQSGAEVKKPGASVKVSCKASGYTFTKYYMSWVRQAPGQGLEWMGIINPIGGSTSYAQKFQGRVTMTRDTSTSTVYMELSSLRSEDTAVYYCARDPSGIAAAFPAGRYYYGMDVWGQGTTVTVSS
VL: EIVMTQSPATLSVSPGERATLSCRASQSVSSNLAWYQQKPGQAPRLLIYGASTRATGIPARFSGSGSGTEFTLTISSLQSEDFAVYYCQQARLGPWTFGGGTKVEIK
As for B5, the Kd was determined as 8.89 nM in test [5] and 4.3 nM in test [1].
